Results on 7 molecules are retold here after patent US20250250357A1 (NANJING ZAIMING PHARMACEUTICAL, published 2025).

The target in test [1] is T1, human MSLN-FL-his protein (human, UniProt Q13421 296-580).
T1 construct: Made in HEK293E cells, purified on nickel column; also called hMSLN-FL-his; human MSLN full-length protein; not shown: His tag
Kind of test: ELISA, coated antigen, antibody 200 nM.

Test [2] deals with T1, human MSLN-FL-his protein. Kind of test: ELISA, coated antigen, antibody 0.02 nM. A general note: In an ELISA, binding on a coated surface is turned into a signal by an enzyme label.
Method: (§1) The plate was sealed with a plastic film and incubated at 4° C. overnight. The next day, the plate was washed twice with PBST, and a blocking buffer [PBS+2% (w/w) BSA] was added for blocking at room temperature for 2 h. The blocking buffer was discarded, and a chimeric antibody or negative control antibody serially diluted from 100 nM was added at 50 μL/well. After incubation at 37° C. for 2 h, the plate was washed 3 times with PBST. […] After incubation at 37° C. for 2 h, the plate was washed 5 times with PBST. A TMB substrate was added at 50 μL/well for incubation at room temperature for 5-10 min, and then a stop solution (1.0 N HCl) was added at 50 μL/well.
Test [3] concerns the target T2, human MSLN-R1-his protein (human, UniProt Q13421 296-390).
T2 construct: Made in HEK293E cells, purified on nickel column; also called hMSLN-R1-his; human MSLN-R1 protein; not shown: His tag
T2 chain: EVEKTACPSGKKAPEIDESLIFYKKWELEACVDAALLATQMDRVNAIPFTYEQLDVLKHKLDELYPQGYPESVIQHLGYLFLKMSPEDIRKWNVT
Kind of test: ELISA, coated antigen, antibody 2 nM.

Test [4] concerns the target T1, human MSLN-FL-his protein. The experiment in a line: ELISA, coated antigen, antibody 2 nM.
Method: as §1
Test [5] concerns the target T1, human MSLN-FL-his protein. Kind of test: ELISA, coated antigen, antibody 0.002 nM.
Method: as §1
For test [6], the target named is T2, human MSLN-R1-his protein. The experiment in a line: ELISA, coated antigen, antibody 20 nM.
Method: as §1
Test [7] has as its target T2, human MSLN-R1-his protein. The experiment in a line: ELISA, coated antigen, antibody 0.2 nM.
Method: as §1
Test [8] has as its target T2, human MSLN-R1-his protein. Kind of test: ELISA, coated antigen, antibody 0.0002 nM.
Method: as §1
Test [9] deals with T2, human MSLN-R1-his protein. The experiment in a line: ELISA, coated antigen, antibody 0.02 nM.
Method: as §1
The target of test [10] is T2, human MSLN-R1-his protein. Kind of test: ELISA, coated antigen, antibody 200 nM.
Method: as §1
In test [11] the target is T1, human MSLN-FL-his protein. Kind of test: ELISA, coated antigen, no antibody (blank).
Method: as §1
Test [12] deals with T1, human MSLN-FL-his protein. Kind of test: ELISA, coated antigen, antibody 20 nM.
Method: as §1
Test [13] has as its target T1, human MSLN-FL-his protein. The experiment in a line: ELISA, coated antigen, antibody 0.2 nM.
Method: as §1
Test [14] concerns the target T2, human MSLN-R1-his protein. The experiment in a line: ELISA, coated antigen, antibody 0.002 nM.
Method: as §1
Test [15] addresses T1, human MSLN-FL-his protein. The experiment in a line: ELISA, coated antigen, antibody 0.0002 nM.
Method: as §1
For test [16], the target named is T2, human MSLN-R1-his protein. The experiment in a line: ELISA, coated antigen, no antibody (blank).
Method: as §1

B1: S009-F7.26.15 chimeric antibody (antibody, human IgG1, kappa, V domains shown)
VH: DVQLQESGPGLVKPSQTVFLTCTVTGISITTGNYRWSWIRQFPGNKLEWIGYIYYTGFITYNPSLTSRTTITRDTPKNQFFLEMKSLTAEDTATYYCARDDYDYDVFAYWGQGTLVTVSA
VL: DIQMTQSPASLSASVGETVTITCRASGNIHNYLAWYHQKQGKSPQFLVYKAKTLADGVPSRFSGSGSGTQYSLKINRLQPEDFGSYYCQHFLSIPLTFGAGTKLELKR
notes: Human-murine chimeric antibody, human IgG1/kappa constant regions
Consider B1, for which the OD450 is 2.39 in test [1]; 1.76 in test [2]; 0.05 in test [3]; 2.43 in test [4]; 0.91 in test [5]; 0.06 in test [6]. Also, the OD450 in test [7] worked out at 0.05; in test [8] it was 0.04; in [9], 0.05; in test [10], 0.12; in test [11], 0.06; in [12] it was 2.52. Also, the OD450 in [13] was found to be 2.33; in [14] it was 0.05; in [15], 0.25; in test [16], 0.06.

B2: S009-F7.30.5 chimeric antibody (antibody, human IgG1, kappa, V domains shown)
VH: QVQLQQPKTELVKPGASVKLSCKASGYIFTTYWMHWVKQRPGQGLEWIGNVNPSNGGTMYNEKFERRATLTVDKSSSTADMQLSSLTSEDSAVYYCVPHYIGSRPGFAYWGQGTLVTVSG
VL: DIVMTQSQKFMSTSVGDRVSVTCKASQNVGTNVAWYQHKPGQSPKALLYSASYRYSGVPDRFTGSGSGTDFTLTITNVQSEDLAEYFCQQYNSYPLTFGGGTKLEIKR
notes: as for B1
In the case of B2, the OD450 in test [1] was found to be 2.36; in [2], 1.77; in test [3], 0.06; in [4], 2.41; in test [5], 0.96; in test [6], 0.1. In addition, the OD450 turned out to be 0.05 in test [7]; 0.05 in test [8]; 0.05 in [9]; 0.32 in test [10]; 0.06 in test [11]; 2.43 in [12]. Moreover, the OD450 is 2.39 in test [13], 0.05 in test [14], 0.36 in [15] and 0.06 in test [16].

B3: S009-F7.33.24 chimeric antibody (antibody, human IgG1, kappa, V domains shown)
VH: QVQLQQPGTELVKPGASVKLSCKASGYTFTSYWMHWVKQRPGQGLEWIGNVNPSNGGSNYNEKFKNKATLTVDKSSSTADMQLNSLTSEDSAVYYCAPHYIGSRPGFAYWGQGTLVTVSG
VL: DIVMTQSQKFMSTSVGDRVSVTCKASQNVGTNIAWYQQKPGQSPKALIYSASYRYSGVPDRFTGSGSGTDFTLTITNVQSEDLAEYFCQQYNSYPLTFGGGTKVEIKR
notes: as for B1
For B3, the OD450 was determined as 2.48 in [1]; 2.01 in test [2]; 0.06 in test [3]; 2.54 in [4]; 1.06 in test [5]; 0.08 in test [6]. The OD450 worked out at 0.05 in test [7]; 0.06 in [8]; 0.06 in test [9]; 0.15 in test [10]; 0.06 in [11]; 2.53 in test [12]. The OD450 in test [13] is 2.6; in [14], 0.06; in [15] it was 0.26; in [16], 0.06.

B4: S009-F7.48.1 chimeric antibody (antibody, human IgG1, kappa, V domains shown)
VH: QVQLQQPGTELVKPGASVKLSCKASGYTFTSYWMHWVKQRPGQGLEWIGNINPSNGGTNNNENFKSKATLTVDTSSSTAYMQLSSLTSEDSAVYYCVRNGYHGYWYFDVWGTGTTVTVSS
VL: DIVMTQSQKFMSTSVGDRVSVTCKASQNVGTNVAWYQQQPGQSPKALIYSASYRYSGVPDRFTGSVSGTDFTLTISNVQSEDLAEYFCQQYNSYPLTFGGGTKLEIKR
notes: as for B1
For the molecule B4, the OD450 in [1] worked out at 2.62; in [2], 0.86; in test [3], 0.04; in test [4], 2.12; in [5], 0.24; in test [6], 0.05. The OD450 in test [7] is 0.04; in test [8], 0.04; in [9] it was 0.04; in test [10] it was 0.07; in test [11], 0.06; in test [12], 2.21. For the same molecule, the OD450 in test [13] stood at 1.87; in test [14], 0.04; in test [15], 0.09; in test [16] it was 0.06.

B5: S009-F7.53.2 chimeric antibody (antibody, human IgG1, kappa, V domains shown)
VH: EVQLQQSGPELVKPGASVKIPCKTSGYTFTDYNMDWVKQSHGKSLEWIGDINPNTDGAIYNQKFQNKATLTVDKSSSTAYMELRSLTSEDTAVYYCTRRKLGRKFFDYWGQGTTLTVSS
VL: QIVLTQSPAIMSASPGEQVTMTCSASSSVGYMNWYQQKPGSSPRLLIYDTSNLASGVPVHFSGSGSGTSYSLTISRMEAAFAATYYCQQWYVYPYTFGGGTKLEIKR
notes: as for B1
Regarding B5, the OD450 in test [1] amounted to 2.6; in test [2], 0.47; in test [3] it was 0.05; in test [4] it was 2.1; in [5] it was 0.12; in test [6], 0.05. Also, the OD450 in [7] is 0.04; in [8] it was 0.05; in test [9] it was 0.04; in test [10], 0.07; in test [11] it was 0.06; in test [12], 2.2. The OD450 in test [13] is 1.53; in test [14], 0.05; in test [15], 0.06; in test [16], 0.06.

B6: S009-F7.44.20 chimeric antibody (antibody, human IgG1, kappa, V domains shown)
VH: EVQLQQSGPELVKPGASVKIPCKASGYTFTDYNMDWVKQSHGKSLEWIGDINPSTGGTIYNQKFNGKATLTEDKSASTVYMEFRSLTSDDTAVYYCARRRIGTGYFDVWGTGTTVTVSS
VL: QIVLTQSPALMSASPGEKVTLTCSASSSVISSYLSWYQQKPGSSPKLLIYRTSNLASGVPARFSGSGSGTSYSLTISSMEAEDAASYFCHQWSSFPYTFGGGTKLEIKR
notes: as for B1
Regarding B6, the OD450 in test [1] amounted to 2.36; in test [2] it was 1.82; in test [3] it was 0.04; in [4], 2.24; in test [5] it was 0.93; in test [6] it was 0.05. The OD450 stood at 0.04 in [7]; 0.04 in [8]; 0.04 in [9]; 0.07 in [10]; 0.06 in test [11]; 2.21 in test [12]. Besides, the OD450 came out at 2.26 in [13], 0.04 in test [14], 0.26 in test [15] and 0.06 in test [16].

B7: S009-F7.41.18 chimeric antibody (antibody, human IgG1, kappa, V domains shown)
VH: QVQLQQPGTELVKPGASVKLSCKASDYTFTSYWMHWVKQRPGQGLEWIGSINPSNGDTYYNEKFKNKATLTVDKSSSTAYMQLSSLTSDDSAVYYCARGWYFDVWGTGTTVTVSS
VL: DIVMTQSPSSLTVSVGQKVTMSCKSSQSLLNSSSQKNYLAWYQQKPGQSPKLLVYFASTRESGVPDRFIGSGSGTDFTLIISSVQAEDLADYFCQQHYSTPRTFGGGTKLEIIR
notes: as for B1
On to B7, for which the OD450 in test [1] turned out to be 2.3; in test [2] it was 1; in test [3] it was 0.06; in [4], 2.26; in test [5], 0.25; in [6], 0.07. Moreover, the OD450 in test [7] came to 0.06; in test [8], 0.06; in test [9], 0.05; in test [10], 0.09; in [11] it was 0.06; in test [12], 2.24. Further, the OD450 was determined as 2.04 in [13], 0.06 in test [14], 0.08 in test [15] and 0.06 in [16].
